# According to article PMC7738341:
# What was measured:
# [1] = biological target: tubulin (microtubules) (human (endogenous in HeLa)) (UniProt P68363)
# [2] = biological target: tubulin (microtubules) (human (endogenous in HeLa)) (UniProt P68363); assay: FRAP; live HeLa cells expressing the CST, 37°C, 5% CO2; EYFP bleached in a circular ROI of 2 μm radius in the cytoplasm; recovery curves fitted by a two-phase exponential association function; the phase with lower mobility is named MTs-bound fraction
# Sequence of UniProt P68363 (P68363 whole entry, chain 1 of 2): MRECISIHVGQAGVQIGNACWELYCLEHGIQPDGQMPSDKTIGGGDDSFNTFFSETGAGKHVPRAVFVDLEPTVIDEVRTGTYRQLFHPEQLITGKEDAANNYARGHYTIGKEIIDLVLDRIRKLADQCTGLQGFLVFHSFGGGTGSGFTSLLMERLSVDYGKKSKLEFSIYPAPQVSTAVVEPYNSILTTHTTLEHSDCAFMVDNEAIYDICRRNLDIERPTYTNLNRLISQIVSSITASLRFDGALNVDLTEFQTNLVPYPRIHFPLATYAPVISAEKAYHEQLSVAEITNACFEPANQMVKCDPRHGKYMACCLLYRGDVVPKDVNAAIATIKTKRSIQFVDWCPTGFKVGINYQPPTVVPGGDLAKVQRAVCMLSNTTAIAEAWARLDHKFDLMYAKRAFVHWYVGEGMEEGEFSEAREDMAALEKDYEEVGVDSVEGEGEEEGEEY
# Sequence of UniProt P68363 (P07437 whole entry, chain 2 of 2, further chain): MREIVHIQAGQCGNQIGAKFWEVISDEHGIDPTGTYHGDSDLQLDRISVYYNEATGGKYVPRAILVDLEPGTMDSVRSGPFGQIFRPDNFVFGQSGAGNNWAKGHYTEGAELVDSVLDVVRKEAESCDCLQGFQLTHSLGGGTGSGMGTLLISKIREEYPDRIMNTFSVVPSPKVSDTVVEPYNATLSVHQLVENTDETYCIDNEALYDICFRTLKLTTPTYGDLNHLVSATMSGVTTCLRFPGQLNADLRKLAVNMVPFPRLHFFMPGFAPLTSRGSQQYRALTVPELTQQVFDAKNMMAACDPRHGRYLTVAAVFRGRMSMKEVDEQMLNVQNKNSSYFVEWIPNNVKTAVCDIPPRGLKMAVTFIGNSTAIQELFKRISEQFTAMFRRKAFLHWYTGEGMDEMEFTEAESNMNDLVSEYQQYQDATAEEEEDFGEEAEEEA
FRAP mobile fraction (Mob calc) in live HeLa cells [1] [%],MTs-bound fraction [2] [%],Substance
79,,Conformational Sensitive Tau with the Q336H mutation (CST^Q336H) (from UniProt P10636-8 1-441) (natural protein)
,61,"Conformational Sensitive Tau, wild type (CST^WT) (from UniProt P10636-8 1-441) (natural protein)"
